The target of experiment [1] is T1, MMP-9 (Homo sapiens, UniProt P14780). Kind of experiment: Affinity ranking of Fabs by BIACORE Flexchip (SPR). Format: binding. The source says: Surface Plasmon Resonance (SPR). The interaction of binding protein and a target can be analyzed using SPR. SPR or Biomolecular Interaction Analysis (BIA) detects biospecific interactions in real time, without labeling any of the interactants. Changes in the mass at the binding surface (indicative of a binding event) of the BIA chip result in alterations of the refractive index of light near the surface (the optical phenomenon of surface plasmon resonance (SPR)). The changes in the refractivity generate a detectable signal, which are measured as an indication of real-time reactions between biological molecules. Methods for using SPR are described, for example, in U.S. Pat. No. 5,641,640; Raether, 1988, Surface Plasmons Springer Verlag; Sjolander and Urbaniczky, 1991, Anal. Chem. 63:2338-2345; Szabo et al., 1995, Curr. Opin. Struct. Biol. 5:699-705 and on-line resources provide by BIAcore International AB (Uppsala, Sweden). BIAcore Flexchip can be used to compare and rank interactions in real time, in terms of kinetics, affinity or specificity without the use of labels.
Information from SPR can be used to provide an accurate and quantitative measure of the equilibrium dissociation constant (Kd), and kinetic parameters, including Kon and Koff, for the binding of a binding protein to a target. Such data can be used to compare different biomolecules. For example, selected proteins from an expression library can be compared to identify proteins that have high affinity for the target or that have a slow Koff. This information can also be used to develop structure-activity relationships (SAR). For example, the kinetic and equilibrium binding parameters of matured versions of a parent protein can be compared to the parameters of the parent protein. Variant amino acids at given positions can be identified that correlate with particular binding parameters, e.g., high affinity and slow Koff. This information can be combined with structural modeling (e.g., using homology modeling, energy minimization, or structure determination by x-ray crystallography or NMR). […]
Target sequence in this assay (P14780 94-707): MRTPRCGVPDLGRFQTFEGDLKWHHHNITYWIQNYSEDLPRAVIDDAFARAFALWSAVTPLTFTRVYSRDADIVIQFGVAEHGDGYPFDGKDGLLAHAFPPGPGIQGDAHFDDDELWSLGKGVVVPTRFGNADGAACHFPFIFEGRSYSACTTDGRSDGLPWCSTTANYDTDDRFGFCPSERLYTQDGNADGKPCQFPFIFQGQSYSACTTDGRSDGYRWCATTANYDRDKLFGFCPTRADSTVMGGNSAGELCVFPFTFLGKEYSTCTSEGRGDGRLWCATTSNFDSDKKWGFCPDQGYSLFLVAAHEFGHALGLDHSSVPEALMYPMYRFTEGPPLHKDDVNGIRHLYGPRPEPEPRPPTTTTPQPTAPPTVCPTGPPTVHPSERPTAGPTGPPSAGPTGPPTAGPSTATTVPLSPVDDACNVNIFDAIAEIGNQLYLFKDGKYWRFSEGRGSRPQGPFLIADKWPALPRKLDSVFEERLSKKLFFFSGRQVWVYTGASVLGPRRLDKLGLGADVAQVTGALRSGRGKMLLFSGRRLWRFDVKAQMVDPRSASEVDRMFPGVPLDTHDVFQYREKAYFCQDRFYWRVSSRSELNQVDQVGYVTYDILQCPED
(In SPR one partner is held on a chip, and binding of the other changes the refractive index at the surface.)

The next experiment concerns the target T2, mouse MMP-9 (Mus musculus, UniProt P41245).
T2 construct: purchased R&D 909-MM
Kind of experiment: Inhibition of mouse MMP-9 activity, fluorogenic substrate. Format: biochemical. The source says:
(§1) The human MMP-1, -2, -3, -7, -8, -9, -10, -12, -13, and -14 were obtained from BIOMOL (Human MMP-9: SE-244, BIOMOL; Human MMP-14: SE-259, BIOMOL; Human MMP-1, -2, -8, -13: MMP MultiPack-1 from BIOMOL; Human MMP-3, -7, -10, -12: MMP MultiPack-2 from BIOMOL). The mouse MMP-2 and -9 were from R&D (Mouse MMP-9: 909-MM, R&D Mouse MMP-2: 924-MP, R&D). The substrate was Mca-Pro-Lys-Pro-Leu-Ala-Leu-Dap(Dnp)-Ala-Arg-NH2 (SEQ ID NO: 951)(M-2225, Bachem) for human MMP-3, and Mca-Lys-Pro-Leu-Gly-Leu-Dap(Dnp)-Ala-Arg-NH2 (SEQ ID NO: 952)(M-2350, Bachem) for all the other enzymes. The substrate concentration in the assay was 10 μM.

For the next experiment, the target named is T3, human MMP-2 (Homo sapiens, UniProt P08253).
T3 construct: purchased BIOMOL MMP MultiPack-1
T3 sequence (P08253 110-660): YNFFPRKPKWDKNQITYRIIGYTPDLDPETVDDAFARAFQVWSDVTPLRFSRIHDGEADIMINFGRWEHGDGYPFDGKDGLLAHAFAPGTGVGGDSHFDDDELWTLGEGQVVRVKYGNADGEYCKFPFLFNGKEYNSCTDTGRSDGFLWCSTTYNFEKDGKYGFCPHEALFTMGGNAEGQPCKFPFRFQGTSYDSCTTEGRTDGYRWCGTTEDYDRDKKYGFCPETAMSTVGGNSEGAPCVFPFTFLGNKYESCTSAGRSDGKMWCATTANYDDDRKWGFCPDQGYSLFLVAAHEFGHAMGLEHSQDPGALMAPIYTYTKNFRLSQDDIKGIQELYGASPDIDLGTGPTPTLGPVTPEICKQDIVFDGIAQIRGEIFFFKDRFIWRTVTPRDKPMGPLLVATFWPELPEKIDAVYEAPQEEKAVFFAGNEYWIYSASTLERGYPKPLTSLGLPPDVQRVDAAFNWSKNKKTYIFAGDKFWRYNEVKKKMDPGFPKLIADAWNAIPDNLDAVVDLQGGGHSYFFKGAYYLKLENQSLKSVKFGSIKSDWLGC
The experiment is described as follows: MMP selectivity panel, residual enzyme activity. The experiment is classed as biochemical. The conditions noted are these: FIG. 5.
Text: as §1

Another experiment has as its target T4, human MMP-12 (Homo sapiens, UniProt P39900).
T4 construct: purchased BIOMOL MMP MultiPack-2
The experiment is described as follows: MMP selectivity panel, residual enzyme activity. Conditions: FIG. 5. Format: biochemical. On the procedure: (§2) After sequencing analysis, the phage display were converted into sFabs and then into IgG1s. Their ability to inhibit MMP-9 and other MMPs (1, 3, 7, 8, 9, 10, 12, 13, 14) was determined by usual means. Compounds were initially screened at 1 μM against MMP-9 and those compounds that inhibited MMP-9>80% were subjected to additional screens against purified recombinant human MMPs. For these additional screens, an IC50 value was determined.
as §1

For the next experiment, the target named is T5, human MMP-14 (Homo sapiens, UniProt P50281).
T5 construct: purchased BIOMOL SE-259
Kind of experiment: MMP selectivity panel, residual enzyme activity. The experiment is classed as biochemical. The conditions noted are these: FIG. 5. On the procedure: as §2, §1

Another experiment concerns the target T6, human MMP-3 (Homo sapiens, UniProt P08254).
T6 construct: purchased BIOMOL MMP MultiPack-2
The experiment is described as follows: MMP selectivity panel, residual enzyme activity. The experiment is classed as biochemical. Conditions: FIG. 5. As to the method: as §2, §1

For a further experiment, the target named is T7, human MMP-8 (Homo sapiens, UniProt P22894).
T7 construct: purchased BIOMOL MMP MultiPack-1
T7 sequence (P22894 101-467): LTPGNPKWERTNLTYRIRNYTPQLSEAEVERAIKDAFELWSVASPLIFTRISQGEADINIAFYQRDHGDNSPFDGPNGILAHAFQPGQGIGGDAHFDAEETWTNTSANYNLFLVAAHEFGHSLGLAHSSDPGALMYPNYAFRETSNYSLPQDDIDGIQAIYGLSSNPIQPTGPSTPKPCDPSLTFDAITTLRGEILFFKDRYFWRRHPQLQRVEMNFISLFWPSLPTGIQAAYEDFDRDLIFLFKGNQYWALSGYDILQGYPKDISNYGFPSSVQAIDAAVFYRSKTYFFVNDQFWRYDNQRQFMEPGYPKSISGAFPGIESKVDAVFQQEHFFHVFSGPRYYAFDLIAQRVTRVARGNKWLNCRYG
The experiment is described as follows: MMP selectivity panel, residual enzyme activity. Format: biochemical. The conditions noted are these: FIG. 5. On the procedure: as §2, §1

Experiment [2] deals with T1, MMP-9. Kind of experiment: Inhibition of human MMP-9 activity, fluorogenic peptide substrate (IC50 / residual activity at 1 μM antibody). Format: biochemical. Also on record: Human MMP-9 catalytic domain (BIOMOL, SE-244); purchased BIOMOL SE-244. As to the method: MMP-9 binding proteins can be characterized in assays that measure their modulatory activity toward MMP-9 or fragments thereof in vitro or in vivo. For example, MMP-9 can be combined with a substrate such as Mca-Pro-Leu-Ala-Cys(Mob)-Trp-Ala-Arg-Dap(Dnp)-NH2 (SEQ ID NO: 12) under assay conditions permitting cleavage by MMP-9. The assay is performed in the absence of the MMP-9 binding protein, and in the presence of increasing concentrations of the MMP-9 binding protein. The concentration of binding protein at which 50% of the MMP-9 activity (e.g., binding to the substrate) is inhibited is the IC50 value (Inhibitory Concentration 50%) or EC50 (Effective Concentration 50%) value for that binding protein.
as §2
Target sequence in this assay (P14780 107-444 limits assumed): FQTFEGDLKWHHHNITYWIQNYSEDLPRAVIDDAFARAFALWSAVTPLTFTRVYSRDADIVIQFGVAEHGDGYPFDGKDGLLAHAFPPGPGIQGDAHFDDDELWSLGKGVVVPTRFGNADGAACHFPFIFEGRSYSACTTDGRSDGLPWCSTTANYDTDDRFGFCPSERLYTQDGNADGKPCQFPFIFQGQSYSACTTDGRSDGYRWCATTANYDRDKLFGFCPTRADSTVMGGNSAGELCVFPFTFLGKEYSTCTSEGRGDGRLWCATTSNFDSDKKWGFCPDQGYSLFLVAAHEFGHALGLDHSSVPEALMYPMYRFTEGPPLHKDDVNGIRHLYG
The human MMP-1, -2, -3, -7, -8, -9, -10, -12, -13, and -14 were obtained from BIOMOL (Human MMP-9: SE-244, BIOMOL; Human MMP-14: SE-259, BIOMOL; Human MMP-1, -2, -8, -13: MMP MultiPack-1 from BIOMOL; Human MMP-3, -7, -10, -12: MMP MultiPack-2 from BIOMOL). […]

Consider two molecules from US8455205B2, “Metalloproteinase 9 binding proteins” (Dyax Corp., priority 2008, dated 2013).

“Also recorded” adds a separate entry of the source.

T2 sequence (P41245 108-730): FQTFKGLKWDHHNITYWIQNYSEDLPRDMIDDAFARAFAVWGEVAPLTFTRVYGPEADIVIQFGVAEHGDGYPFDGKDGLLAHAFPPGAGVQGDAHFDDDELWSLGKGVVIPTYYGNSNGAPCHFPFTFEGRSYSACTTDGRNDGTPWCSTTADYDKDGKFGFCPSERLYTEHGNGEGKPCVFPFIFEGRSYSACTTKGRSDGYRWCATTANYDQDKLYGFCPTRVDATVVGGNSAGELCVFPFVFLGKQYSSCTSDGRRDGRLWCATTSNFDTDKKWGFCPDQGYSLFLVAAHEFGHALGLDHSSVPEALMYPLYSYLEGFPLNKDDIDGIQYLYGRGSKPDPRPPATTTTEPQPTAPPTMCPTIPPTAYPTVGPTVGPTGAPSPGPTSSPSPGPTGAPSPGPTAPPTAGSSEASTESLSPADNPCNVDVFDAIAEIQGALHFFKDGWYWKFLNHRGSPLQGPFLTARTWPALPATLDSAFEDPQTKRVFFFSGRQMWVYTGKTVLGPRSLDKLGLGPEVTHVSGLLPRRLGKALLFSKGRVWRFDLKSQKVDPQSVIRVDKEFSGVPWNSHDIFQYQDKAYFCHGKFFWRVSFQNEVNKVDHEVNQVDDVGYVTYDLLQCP
T4 sequence (P39900 106-470): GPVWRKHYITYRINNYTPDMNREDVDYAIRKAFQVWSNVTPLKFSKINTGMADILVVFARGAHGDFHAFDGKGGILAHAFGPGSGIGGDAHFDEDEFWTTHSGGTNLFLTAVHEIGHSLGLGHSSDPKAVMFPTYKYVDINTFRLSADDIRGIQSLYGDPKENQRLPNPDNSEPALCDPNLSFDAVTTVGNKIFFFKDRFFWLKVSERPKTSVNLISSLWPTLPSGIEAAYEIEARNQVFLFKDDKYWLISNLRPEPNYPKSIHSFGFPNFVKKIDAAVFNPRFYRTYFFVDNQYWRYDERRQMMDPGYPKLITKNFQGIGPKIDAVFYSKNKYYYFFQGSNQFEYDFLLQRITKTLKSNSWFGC
T6 sequence (P08254 100-477): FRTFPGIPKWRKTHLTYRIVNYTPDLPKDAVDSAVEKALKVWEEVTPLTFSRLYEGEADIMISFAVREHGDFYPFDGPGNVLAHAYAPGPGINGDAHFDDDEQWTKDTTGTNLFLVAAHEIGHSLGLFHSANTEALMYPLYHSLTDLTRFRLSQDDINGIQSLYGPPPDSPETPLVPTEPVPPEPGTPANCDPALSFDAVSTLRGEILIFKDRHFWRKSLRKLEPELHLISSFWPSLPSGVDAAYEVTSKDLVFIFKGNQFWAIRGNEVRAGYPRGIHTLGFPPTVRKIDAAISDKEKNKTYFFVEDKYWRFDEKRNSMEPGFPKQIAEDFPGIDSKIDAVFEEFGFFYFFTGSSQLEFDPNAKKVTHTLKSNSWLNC

“TIMP-1: endogenous MMP inhibitor, control spot on Flexchip” registered a Difference from reference in the experiment with MMP-9 [1] (Flexchip spot signal, Fabs from the R0017 plate) of 845.8099. Moreover, in the experiment with MMP-9 [1] (Flexchip, Fabs), the ka result was “No Binding *” and the kd entry was “No Binding *”.

B1: 539A-M0240-B03: Parental isolate (sFab; IgG); h/mMMP-9 antibody inhibitor (antibody, V domains shown)
VL: QYELTQPRSVSGSPGQSVTISCTGTSSDVGGYNYVSWYQQHPGKAPKLMIYDVSKRPSGVPDRFSGSKSGNTASLTISGLQAEDEADYYCCSYAGSYTLVFGGGTKLTVL
VH: EVQLLESGGGLVQPGGSLRLSCAASGFTFSTYQMVWVRQAPGKGLEWVSVIYPSGGPTVYADSVKGRFTISRDNSKNTLYLQMNSLRAEDTAVYYCARGEDYYDSSGPGAFDIWGQGTMVTVSS
Turning to B1, the “Inhibition of mouse MMP-9 activity (in words)” value with mouse MMP-9 is recorded as “inhibits; also recorded: decrease or inhibit”. For the same molecule, in the experiment with human MMP-2, the “Inhibition of human MMP-2 (in words)” value is recorded as “not”. Moreover, in the experiment with human MMP-12, the “Inhibition of human MMP-12 (in words)” value is “not”. For the same molecule, in the experiment with human MMP-14, the “Inhibition of human MMP-14 (in words)” value was “not”. Moreover, the “Inhibition of human MMP-3 (in words)” value with human MMP-3 is reported as “not”. Moreover, the “Inhibition of human MMP-8 (in words)” value with human MMP-8 is “not”. Also, in the experiment with MMP-9 [2] (FIG. 5 / Example 12), the “Inhibition of human MMP-9 activity (in words)” value was “inhibits; also recorded: decrease or inhibit”. In addition, the “Selectivity for MMP-9 versus other MMPs tested” value with MMP-9 [2] (compared to the other human and murine MMPs tested) was “selective inhibitor of MMP-9”.
